Earlier results on two substances are cited in paper PMC2833280.

What all share (test): kinetics
In one series the target is Glu380 (UniProt position 380, TRWTGEFATHG).
For series [1], the target named is Lys443 (UniProt position 443, IVWRKKIGIHE). Particulars: enzyme-ATP complex and free CMPr (kcat/Km).
Series [2] addresses Lys443 (UniProt position 443, TVNRPKLGVHE). The conditions noted are these: enzyme-substrate complexes (kcat).

In the case of “Carbapenam synthetase (CPS, CarA) (Pectobacterium carotovorum (printed 'Pectobacterium carotorova'; formerly Erwinia carotovora))”, the pKa with Glu380 (enzyme-ATP complex and free CMPr (kcat/Km)) is reported as 7.8 ± 0.1; in the series with Glu380 (enzyme-substrate complexes (kcat)) it was 7.4 ± 0.1; in the series with Lys443 [1], 10.0 ± 0.1.

In the case of “beta-Lactam synthetase (beta-LS) (Streptomyces clavuligerus (printed 'Streptomyces clavuligerous'))”, in the series with Lys443 [2], the pKa is recorded as 8.07 ± 0.05.
